Measurements published in patent US20100221261.

Tests used:
[1] = biological target: GST-linker BIR 2 BIR3Ring
[2] = biological target: GST-XIAP linker BIR 2 [GST: P08515]

Sequence of GST-linker BIR 2 BIR3Ring (chain, as listed by the source): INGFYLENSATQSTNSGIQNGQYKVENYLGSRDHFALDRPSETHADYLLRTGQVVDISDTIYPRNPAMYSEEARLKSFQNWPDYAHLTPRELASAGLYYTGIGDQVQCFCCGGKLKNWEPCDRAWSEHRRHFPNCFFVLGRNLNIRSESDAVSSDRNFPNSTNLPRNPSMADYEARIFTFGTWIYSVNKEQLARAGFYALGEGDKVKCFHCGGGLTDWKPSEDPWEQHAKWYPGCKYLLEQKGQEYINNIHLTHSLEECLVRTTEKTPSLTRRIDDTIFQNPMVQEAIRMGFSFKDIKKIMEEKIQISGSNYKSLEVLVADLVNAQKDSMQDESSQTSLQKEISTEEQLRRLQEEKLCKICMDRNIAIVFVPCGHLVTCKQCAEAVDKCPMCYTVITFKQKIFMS

B1: Caspase-3 (protein)
chain: SGISLDNSYKMDYPEMGLCIIINNKNFHKSTGMTSRSGTDVDAANLRETFRNLKYEVRNKNDLTREEIVELMRDVSKEDHSKRSSFVCVLLSHGEEGIIFGTNGPVDLKKITNFFRGDRCRSLTGKPKLFIIQACRGTELDCGIETDSGVDDDMACHKIPVEADFLYAYSTAPGYYSWRNSKDGSWFIQSLCAMLKQYADKLEFMHILTRVNRKVATEFESFSFDATFHAKKQIPCIVSMLTKELYFYH
Caspase 3 activity (hydrolysis of DEVD-AMC, released AMC fluorescence) [1]: caspase-3 was inhibited by GST fusion proteins of XIAP linker-Bir2, XIAP Linker Bir2-Bir3-RING or full-length XIAP | Caspase 3 activity (hydrolysis of DEVD-AMC, released AMC fluorescence) [2]: caspase-3 was inhibited by GST fusion proteins of XIAP linker-Bir2, XIAP Linker Bir2-Bir3-RING or full-length XIAP
